In paper PMC8726653, “TNF-induced necroptosis initiates early autophagy events via RIPK3-dependent AMPK activation, but inhibits late autophagy” (Autophagy, 2021):

Target: T1, His-AMPK [His-HsPRKAA1 (11–559) + HsPRKAB2 (1–272) + HsPRKAG1 (1–331)] (human, UniProt Q13131 11-559; O43741 1-272; P54619 1-331)
T1 construct: also called DU32489; source: obtained: MRC PPU Reagents and Services, University of Dundee (DU32489); copies: + +
Experiment: pull-down; 4 µg GST-MmRIPK3 (or GST) on glutathione-Sepharose beads incubated with 1 µg His-AMPK overnight at 4°C in 0.5% Nonidet P-40 buffer (50 mM Tris pH 8.0, 100 mM NaCl, 6 mM EDTA, 6 mM EGTA, 1 mM DTT); blot for AMPK and GST
Settings: both partners purified

T1 sequence (Q13131 11-559, chain 1 of 3): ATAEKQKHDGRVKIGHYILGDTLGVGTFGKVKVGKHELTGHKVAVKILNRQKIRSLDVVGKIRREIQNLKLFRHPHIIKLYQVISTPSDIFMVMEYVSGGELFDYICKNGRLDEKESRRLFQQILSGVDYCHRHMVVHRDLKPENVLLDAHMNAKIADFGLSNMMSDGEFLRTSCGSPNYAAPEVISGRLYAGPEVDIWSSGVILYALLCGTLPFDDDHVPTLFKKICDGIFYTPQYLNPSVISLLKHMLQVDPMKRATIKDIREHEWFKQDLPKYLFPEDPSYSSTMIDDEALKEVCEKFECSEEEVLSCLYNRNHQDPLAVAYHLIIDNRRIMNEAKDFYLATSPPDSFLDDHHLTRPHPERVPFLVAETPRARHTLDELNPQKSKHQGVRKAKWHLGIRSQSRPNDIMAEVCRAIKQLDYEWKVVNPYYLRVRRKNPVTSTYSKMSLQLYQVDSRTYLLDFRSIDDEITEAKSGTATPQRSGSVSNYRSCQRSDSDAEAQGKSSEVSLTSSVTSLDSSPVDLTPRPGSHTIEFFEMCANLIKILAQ
T1 sequence (O43741 whole entry, chain 2 of 3): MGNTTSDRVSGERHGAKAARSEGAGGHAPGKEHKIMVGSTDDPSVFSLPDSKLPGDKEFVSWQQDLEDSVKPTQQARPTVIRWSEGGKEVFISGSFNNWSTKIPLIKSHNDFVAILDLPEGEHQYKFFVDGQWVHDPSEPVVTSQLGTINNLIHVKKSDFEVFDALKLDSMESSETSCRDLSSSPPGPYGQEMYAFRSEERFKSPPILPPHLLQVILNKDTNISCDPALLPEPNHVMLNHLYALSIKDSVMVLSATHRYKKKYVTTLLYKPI
T1 sequence (P54619 whole entry, chain 3 of 3): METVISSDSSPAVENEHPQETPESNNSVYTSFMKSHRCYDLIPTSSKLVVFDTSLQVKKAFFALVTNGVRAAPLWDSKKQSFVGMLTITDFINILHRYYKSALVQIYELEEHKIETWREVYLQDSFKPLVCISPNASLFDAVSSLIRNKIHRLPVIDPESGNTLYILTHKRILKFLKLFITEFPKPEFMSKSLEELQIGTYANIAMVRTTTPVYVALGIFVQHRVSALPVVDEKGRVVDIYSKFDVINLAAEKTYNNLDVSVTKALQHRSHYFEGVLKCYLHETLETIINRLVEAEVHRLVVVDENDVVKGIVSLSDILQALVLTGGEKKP

- binding result: binds
B1: GST-MmRIPK3 (enzyme, mouse, UniProt Q9QZL0 1-486, looked up)
chain: MSSVKLWPTGASAVPLVSREELKKLEFVGKGGFGVVFRAHHRTWNHDVAVKIVNSKKISWEVKAMVNLRNENVLLLLGVTEDLQWDFVSGQALVTRFMENGSLAGLLQPECPRPWPLLCRLLQEVVLGMCYLHSLNPPLLHRDLKPSNILLDPELHAKLADFGLSTFQGGSQSGSGSGSGSRDSGGTLAYLDPELLFDVNLKASKASDVYSFGILVWAVLAGREAELVDKTSLIRETVCDRQSRPPLTELPPGSPETPGLEKLKELMIHCWGSQSENRPSFQDCEPKTNEVYNLVKDKVDAAVSEVKHYLSQHRSSGRNLSAREPSQRGTEMDCPRETMVSKMLDRLHLEEPSGPVPGKCPERQAQDTSVGPATPARTSSDPVAGTPQIPHTLPFRGTTPGPVFTETPGPHPQRNQGDGRHGTPWYPWTPPNPMTGPPALVFNNCSEVQIGNYNSLVAPPRTTASSSAKYDQAQFGRGRGWQPFHK
notes: cDNA amplified from pBOB-FLAG-MmRIPK3 and inserted into pGEX-5X-3; also called recombinant RIPK3; source: E. coli BL21 (DE3), purified on glutathione sepharose 4B beads
